Laboratory results as given in paper PMC10696396, “HilE represses the activity of the Salmonella virulence regulator HilD via a mechanism distinct from that of intestinal long-chain fatty acids” (The Journal of Biological Chemistry, 2023).

T1: EYFP-HilD (Salmonella enterica, UniProt P0CL08 1-309)
T1 construct: HilD of Salmonella enterica, UniProt P0CL08; eyfp was ligated (BamHI/EheI) into the SUMO-HilD expression vector that gives the full-length HilD; EYFP is the fluorescent label used for MST detection; also called EYFP-HilD fusion protein; source: E. coli C41(DE3), purified (Ni-NTA, SUMO protease cleavage, second Ni-NTA, SEC on Superdex 200); not shown: His6-SUMO, N-terminal, cleaved; EYFP, …
T1 sequence: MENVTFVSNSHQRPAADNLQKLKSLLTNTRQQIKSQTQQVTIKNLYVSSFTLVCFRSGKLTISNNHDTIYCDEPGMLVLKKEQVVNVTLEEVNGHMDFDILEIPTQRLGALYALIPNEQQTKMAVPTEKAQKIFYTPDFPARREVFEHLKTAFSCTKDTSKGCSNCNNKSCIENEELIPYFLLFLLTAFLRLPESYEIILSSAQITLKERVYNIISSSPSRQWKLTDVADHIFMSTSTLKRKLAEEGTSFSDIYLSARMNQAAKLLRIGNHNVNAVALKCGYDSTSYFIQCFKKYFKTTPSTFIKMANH

B1: HilD (full-length, unfused) (natural protein)
chain: T1 sequence
notes: HilD, AraC/XylS transcription regulator of Salmonella enterica, UniProt P0CL08; Exclusively a homodimer alone by SEC-MALS; a single copy stands in the 1:1 complex with HilE; also called unlabeled HilD; unfused HilD; source: E. coli C41(DE3), purified (Ni-NTA, SUMO protease cleavage, second Ni-NTA, SEC); not shown: His6-SUMO, N-terminal, cleaved
B2: HilD NTD (residues 7-206) (domain or fragment)
chain: VSNSHQRPAADNLQKLKSLLTNTRQQIKSQTQQVTIKNLYVSSFTLVCFRSGKLTISNNHDTIYCDEPGMLVLKKEQVVNVTLEEVNGHMDFDILEIPTQRLGALYALIPNEQQTKMAVPTEKAQKIFYTPDFPARREVFEHLKTAFSCTKDTSKGCSNCNNKSCIENEELIPYFLLFLLTAFLRLPESYEIILSSAQIT
notes: a His6 tag stands in place of the first six residues of HilD; No cleavage of the His6 tag is described (no protease site, purification goes from Ni-NTA to SEC); also called HilD_(7-206) (NTD); His6-tagged HilD NTD construct; source: E. coli C41(DE3), purified (Ni-NTA, SEC on Superdex 75); not shown: His6, N-terminal, kept

Legend:
EYFP-HilD [1] = molecular target: T1, EYFP-HilD; test: MST; homodimerization: unlabeled HilD titrated against EYFP-HilD preincubated with 1% DMSO; MST on-time 1.5 s, 25 °C; settings: both partners purified
[2] = molecular target: the molecule itself; test: SEC-MALS; Superdex 75 Increase 10/300 GL, 50 mM NaH2PO4 pH 7.0, 200 mM NaCl, 0.5 ml/min; protein concentrations of 100 μM (Fig. 4, D and E)
EYFP-HilD [3] = molecular target: T1, EYFP-HilD; test: MST; homodimerization: unlabeled HilD (3.05 nM to 100 μM) titrated against 50 nM EYFP-HilD; 25 °C, 0.05% Pluronic F-127, protein storage buffers; dimer to monomers; settings: both partners purified

Binder | Kd (EYFP-HilD [1]) [µM] | stoichiometry N [2] | Kd (EYFP-HilD [3]) [µM]
B1 | 4.33 ± 0.72 | 2 | 3.85 ± 0.63
B2 | – | 2 | –
